# Experimental data reported in patent publication US20260209363A1 (Chugai, published 2026).
# T1: His-tagged mouse MOG (8536-MO, R&D Systems) (mouse, UniProt Q61885 29-156, limits assumed)
# T1 construct: Bought; also called mouse soluble MOG; not shown: His tag
# T1 sequence (looked up): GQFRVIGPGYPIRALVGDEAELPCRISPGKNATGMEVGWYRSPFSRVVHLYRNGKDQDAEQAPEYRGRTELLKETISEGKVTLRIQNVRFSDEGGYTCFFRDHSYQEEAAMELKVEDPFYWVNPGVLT
# T2: Mouse MOG (R&D system) (mouse, UniProt Q61885 29-156, limits assumed)
# T2 construct: also called mouse soluble MOG; soluble MOG
# T2 sequence (looked up): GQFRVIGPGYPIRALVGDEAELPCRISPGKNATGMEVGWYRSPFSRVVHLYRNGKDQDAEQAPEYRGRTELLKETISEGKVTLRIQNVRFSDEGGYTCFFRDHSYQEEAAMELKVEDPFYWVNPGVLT
# Columns and labels:
# [1] = biological target: T1, His-tagged mouse MOG (8536-MO, R&D …); assay: Gyrolab xP immunoassay of antibody-antigen complex in C57BL/6J mouse plasma (albumin present), 2 nM antibody, 9 nM His-tagged mouse MOG
# Protocol: First, to bind the albumin-binding domain to albumin in plasma, each of the anti-mouse MOG antibodies mentioned above were diluted to 8 nM using C57BL/6J mouse plasma, and then incubated at room temperature for 40 minutes. Next, for binding of the anti-mouse MOG antibody to the target antigen, one equivalent of His-tagged mouse MOG (8536-MO, R&D Systems) diluted to 38 nM in mouse plasma was added to the antibody solutions, and then the solutions were incubated at room temperature for 1 hour 25 minutes.
# To detect the antibody-antigen complexes, first, the anti-delta GK antibody (AF647-anti-delta GK) was labeled using an Alexa flour 647 labeling kit (A20186, Thermo Fisher Scientific) according to the attached protocols. […] (the final concentrations were 2 nM for the antibody, 9 nM for His-tagged mouse MOG, and 67 nM for AF647-anti-delta GK).
# Measurement of antigen-antibody complexes were performed using Gyrolab xP. For the measurements using Gyrolab xP, Gyrolab Bioaffy 200 (P0004180, Gyros Protein Technologies) was used as the measurement disc. Biotinylated anti-His-tagged antibody (BAM050, R&D Systems) diluted to 10 micro g/mL with PBS 0.05% Tween 20 was added to the measurement disc, and then solid-phased on the reaction layer in the disc. A mixed solution of the labeled anti-delta GK antibody, anti-mouse MOG antibody (albumin switch molecule), and mouse MOG, incubated as described above, was added to the disc, and the anti-mouse MOG antibody-mouse MOG-AF647-anti-delta GK complex was captured by the solid-phased antibody. The amount of the captured complex was detected by the fluorescence signal of AF647 (Detect PMT 25%). The fluorescence signal of AF647 was analyzed by Gyro Evaluator (version 3.6.2.30, Gyros Protein Technologies).
# Mouse MOG (R&D system) = biological target: T2, Mouse MOG (R&D system); assay: SPR (Biacore T200), antibody captured by anti-human Fc antibody, mouse MOG as analyte, 25 degrees C, no albumin
# Protocol: Binding activities of the antibodies produced in Example 10 against mouse MOG were assessed using Biacore T200 (Cytiva).
# As the running buffer, 50 mM Na Phosphate (pH 7.4), 150 mM NaCl, 0.05% Tween 20, and 0.005% NaN₃ was used, and the assessment was performed at 25 degrees C. First, anti-human Fc antibody (Cytiva) was used as a ligand-capturing molecule. Anti-human Fc antibody (Cytiva) was solid-phased on a Series S Sensor Chip CM4 (Cytiva) using an Amine Coupling Kit (Cytiva). Antibody solutions prepared using the running buffer was allowed to interact with this CM4 sensor chip to capture approximately 480 RU of the antibody. Mouse MOG (R&D system) was diluted to 0, 10, 40, 160, and 640 nM with the running buffer, and then bound to the captured antibody. The chip was regenerated using 3 M MgCl₂, and measurements were performed by repeatedly capturing antibodies. Dissociation constant (KD) of the respective antibodies for mouse MOG was calculated using Biacore T200 Evaluation Software 2.0. Specifically, the association rate constant ka (L/mol/s) and the dissociation rate constant kd (1/s) were calculated by global fitting of the sensorgrams obtained by measurement with the 1:1 Langmuir binding model, and the dissociation constant KD (mol/L) was calculated from these values.
"decrease in the signal derived from the complex, compared to MOG//IC17 [1] [%]",Kd (Mouse MOG (R&D system)) [nM],koff (Mouse MOG (R&D system)) [s⁻¹],kon (Mouse MOG (R&D system)) [M⁻¹ s⁻¹],Binder
90,1.91,1.39e-05,7260,"ABD094(H/L)-MOG//IC17 (bispecific antibody, human IgG1, kappa, also called ABD094(H/L)-MOG307//IC17; anti-MOG albumin switch molecule) heavy 1: LAEAKEAANAELDSYGVSDFYKRLIDKAKTVEGVEALKDAILAALPRVTLRESGPTLVKPTQTLTLTCTFSGFSLSTSGVGVGWIRQPPGKALEWLALIFWDDDSHYSPSLKSRLTITKDTSKNQVVLTMTNMDPVDTATYYCARYYFGSGSYFPSYWYFDLWGRGTLVTVSSASTKGPSVFPLAPSSKSTSGGTAALGCLVEDYFPEPVTVSWNSGALTSGVHTFPAVLQSSGLYSLSSVVTVPSSSLGTQTYICNVNHKPSNTKVDERVEPKSCDKTHTCPPCPAPELRRGPSVFLFPPKPKDTLMISRTPEVTCVVVDVSHEDPEVKFNWYVDGVEVHNAKTKPREEQYNSTYRVVSVLTVLHQDWLNGKEYKCKVSNKALPAPIEKTISKAKGQPREPQVCTLPPSREEMTKNQVSLSCAVKGFYPSDIAVEWESNGQPENNYKTTPPVLDSDGSFFLVSKLTVDKSRWQQGNVFSCSVMHEALHNHYTQKSLSLSP light 1: not shown heavy 2: not shown light 2: QVQLQQSGPQLVRPGASVKISCKASGYSFTSYWMHWVNQRPGQGLEWIGMIDPSYSETRLNQKFKDKATLTVDKSSSTAYMQLSSPTSEDSAVYYCALYGNYFDYWGQGTTLTVSSASVAAPSVFIFPPSDEQLKSGTASVVCLLNNFYPREAKVQWKVDNALQSGNSQESVTEQDSKDSTYSLSSTLTLSKADYEKHKVYACEVTHQGLSSPVTKSFNRGEC"
83,5.53,9.46e-06,1710,"ABD094(H/L).N10-MOG//IC17 (bispecific antibody, human IgG1, kappa, ABD094 linked via N10 linker (G) at VH and VL N-termini of the MOG arm; also called ABD094.N10(H/L)-MOG//IC17; ABD094(H/L).N10-MOG307//IC17) heavy 1: LAEAKEAANAELDSYGVSDFYKRLIDKAKTVEGVEALKDAILAALPGRVTLRESGPTLVKPTQTLTLTCTFSGFSLSTSGVGVGWIRQPPGKALEWLALIFWDDDSHYSPSLKSRLTITKDTSKNQVVLTMTNMDPVDTATYYCARYYFGSGSYFPSYWYFDLWGRGTLVTVSSASTKGPSVFPLAPSSKSTSGGTAALGCLVEDYFPEPVTVSWNSGALTSGVHTFPAVLQSSGLYSLSSVVTVPSSSLGTQTYICNVNHKPSNTKVDERVEPKSCDKTHTCPPCPAPELRRGPSVFLFPPKPKDTLMISRTPEVTCVVVDVSHEDPEVKFNWYVDGVEVHNAKTKPREEQYNSTYRVVSVLTVLHQDWLNGKEYKCKVSNKALPAPIEKTISKAKGQPREPQVCTLPPSREEMTKNQVSLSCAVKGFYPSDIAVEWESNGQPENNYKTTPPVLDSDGSFFLVSKLTVDKSRWQQGNVFSCSVMHEALHNHYTQKSLSLSP light 1: not shown heavy 2: not shown light 2: QVQLQQSGPQLVRPGASVKISCKASGYSFTSYWMHWVNQRPGQGLEWIGMIDPSYSETRLNQKFKDKATLTVDKSSSTAYMQLSSPTSEDSAVYYCALYGNYFDYWGQGTTLTVSSASVAAPSVFIFPPSDEQLKSGTASVVCLLNNFYPREAKVQWKVDNALQSGNSQESVTEQDSKDSTYSLSSTLTLSKADYEKHKVYACEVTHQGLSSPVTKSFNRGEC"
79,0.0607,3.46e-07,5700,"ABD094(H/L).N02-MOG//IC17 (bispecific antibody, human IgG1, kappa, ABD094 linked via N02 linker at VH and VL N-termini of the MOG arm; also called ABD094.N02(H/L)-MOG//IC17) heavy 1: LAEAKEAANAELDSYGVSDFYKRLIDKAKTVEGVEALKDAILAALPGGGGSRVTLRESGPTLVKPTQTLTLTCTFSGFSLSTSGVGVGWIRQPPGKALEWLALIFWDDDSHYSPSLKSRLTITKDTSKNQVVLTMTNMDPVDTATYYCARYYFGSGSYFPSYWYFDLWGRGTLVTVSSASTKGPSVFPLAPSSKSTSGGTAALGCLVEDYFPEPVTVSWNSGALTSGVHTFPAVLQSSGLYSLSSVVTVPSSSLGTQTYICNVNHKPSNTKVDERVEPKSCDKTHTCPPCPAPELRRGPSVFLFPPKPKDTLMISRTPEVTCVVVDVSHEDPEVKFNWYVDGVEVHNAKTKPREEQYNSTYRVVSVLTVLHQDWLNGKEYKCKVSNKALPAPIEKTISKAKGQPREPQVCTLPPSREEMTKNQVSLSCAVKGFYPSDIAVEWESNGQPENNYKTTPPVLDSDGSFFLVSKLTVDKSRWQQGNVFSCSVMHEALHNHYTQKSLSLSP light 1: not shown heavy 2: not shown light 2: QVQLQQSGPQLVRPGASVKISCKASGYSFTSYWMHWVNQRPGQGLEWIGMIDPSYSETRLNQKFKDKATLTVDKSSSTAYMQLSSPTSEDSAVYYCALYGNYFDYWGQGTTLTVSSASVAAPSVFIFPPSDEQLKSGTASVVCLLNNFYPREAKVQWKVDNALQSGNSQESVTEQDSKDSTYSLSSTLTLSKADYEKHKVYACEVTHQGLSSPVTKSFNRGEC"
